The values below come from patent WO2009080764A2 (dated 2009).

Assay [1] has as its target T1, human serum albumin (HSA) (human, UniProt P02768 25-609).
T1 construct: also called monomeric HSA
As to the kind of experiment: SPR Biacore T100, periplasmic extract over immobilized human serum albumin, pH 7 and pH 5. Background: SPR reads the build-up and loss of mass on a sensor chip optically.

Assay [2] addresses T2, human beta2-microglobulin (human, UniProt P61769 21-119).
T2 construct: also called b2-microglobulin; soluble human b2-microglobulin
As to the kind of experiment: ELISA on coated b2-microglobulin from human urine, pH 5.1. A general note: An ELISA detects its analyte on a solid surface through an enzyme-linked reagent.

Assay [3] has as its target shFcRn (intact soluble human FcRn, heavy chain and beta2-microglobulin) (human) (UniProt P55899). As to the kind of experiment: ELISA pH 5.1, purified nanobody 0-50 nM on coated shFcRn, anti-myc detection.
The target in assay [4] is T3, shFcRn-GST (GST-fused soluble human FcRn, heterodimeric) (human, UniProt P55899 24-290; P61769 21-119).
T3 construct: Eukaryotically expressed; immobilized by amine coupling on CM5 chips or used in ELISA; also called GST-fused shFcRn; not shown: GST fusion partner
As to the kind of experiment: SPR Biacore 3000, Nb 500-15 nM over immobilized shFcRn-GST, pH 7.4, 1:1 Langmuir model.

Assay [5] has as its target T3, shFcRn-GST (GST-fused soluble human …). As to the kind of experiment: SPR Biacore 3000, immobilized shFcRn-GST, pH 7.4, equilibrium responses in a steady-state affinity model.
The target is the same in assay [6]. In words: SPR Biacore 3000, Nb 500-15 nM over immobilized shFcRn-GST, pH 6.0, 1:1 Langmuir model.
The target is the same in assay [7]. As to the kind of experiment: SPR Biacore 3000, immobilized shFcRn-GST, pH 6.0, equilibrium responses in a steady-state affinity model.

T3 sequence (P55899 24-290, chain 1 of 2): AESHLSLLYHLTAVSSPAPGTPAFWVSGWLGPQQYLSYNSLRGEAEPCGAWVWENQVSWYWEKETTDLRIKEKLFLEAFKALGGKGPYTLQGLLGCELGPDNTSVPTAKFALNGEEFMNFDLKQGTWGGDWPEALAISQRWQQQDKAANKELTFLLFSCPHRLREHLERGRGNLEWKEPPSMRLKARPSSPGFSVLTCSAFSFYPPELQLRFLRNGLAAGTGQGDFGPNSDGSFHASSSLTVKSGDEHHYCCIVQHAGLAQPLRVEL
T3 sequence (P61769 21-119, chain 2 of 2): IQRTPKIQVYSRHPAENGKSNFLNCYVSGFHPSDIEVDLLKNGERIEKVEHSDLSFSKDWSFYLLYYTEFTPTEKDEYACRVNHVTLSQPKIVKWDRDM
T2 sequence (P61769 21-119 limits assumed): as the sequence (P61769 21-119, chain 2 of 2) above
Chain of shFcRn (intact soluble human FcRn, heavy chain and beta2-microglobulin) (human) (P55899 other isoform, or with tags, fused parts or gaps, chain 1 of 2): as the sequence (P55899 24-290, chain 1 of 2) above, with C48S, C251S counted along it
Chain of shFcRn (intact soluble human FcRn, heavy chain and beta2-microglobulin) (human) (P61769 21-119, chain 2 of 2, further chain): as the sequence (P61769 21-119, chain 2 of 2) above

B1: 4A9 (VHH)
VHH: EVQLVESGGGLVQAGGSLRLSCEASGFTLDYSGVGWFRQAPGKERELVSCISRGGDRAGYANSVKGRFTMSRDNAKNILYLQMNSLKPEDTAVYYCAATHSGSGCYDGAIDYWGKGTLVTVSS
Take B1: the “fold difference in off rate, pH 5 against pH 7” value in assay [1] is 0.54 fold.

B2: 218-H4_20GS_218-H4 (bivalent Nb 218-H4) (VHH)
chain: EVQLVESGGALVQAGGSLRLSCVASGRTFNSIGMGWFRQAPGKERDFIGGITWDGRDTYYTDSVKGRFTISRDNAKNTVYLQMNSLKPWDTAVYYCAANRDPWIATSYQDYAYWGQGTQVTVSSGGGGSGGGGSGGGGSGGGGSEVQLVESGGALVQAGGSLRLSCVASGRTFNSIGMGWFRQAPGKERDFIGGITWDGRDTYYTDSVKGRFTISRDNAKNTVYLQMNSLKPWDTAVYYCAANRDPWIATSYQDYAYWGQGTQVTVSS
Regarding B2, the binding result in assay [2] is listed as “no binding (tested: 0-50 nM)”. This molecule also yielded a fold improvement in binding against the monovalent nanobody in assay [3] of 10 fold.

B3: Nb 218-H4 (VHH)
VHH: EVQLVESGGALVQAGGSLRLSCVASGRTFNSIGMGWFRQAPGKERDFIGGITWDGRDTYYTDSVKGRFTISRDNAKNTVYLQMNSLKPWDTAVYYCAANRDPWIATSYQDYAYWGQGTQVTVSS
notes: Anti-FcRn Nanobody, family V; detected through a myc tag; also called monovalent nanobody
Turning to B3, the Kd in assay [4] is roughly 52.5 nM; in assay [5] it was 55.6 nM; in assay [6], roughly 21.2 nM; in assay [7], 22 nM. Also, the binding result in assay [2] is reported as “no binding (tested: 0-50 nM)”.

Usually Kd stands for the concentration at which binding is half-saturated. The low end stands for higher affinity, the high end for lower affinity.
